We go through 6 molecules from patent publication US20250205362A1, “LIPID NANOPARTICLES” (NATIONAL UNIVERSITY CORPORATION HOKKAIDO UNIVERSITY, priority 2022, published 2025).

Marks after values point to notes of the source that are not given here.

Data set [1] can be described thus: Blood test 24 hours after administration (toxicity). The format is in vivo, mouse. Particulars: mice. As for the experimental part:
TTR-RNP-ssODN-loaded lipid nanoparticles were intravenously injected to BALB/c mice (female, 4 weeks old) at 2 mg RNP/kg body weight for two consecutive days. One week after the last injection, mice were anesthetized, weighed, and blood was collected. […] Hematological parameters in serum were measured by Oriental Yeast Co., Ltd.
In addition, for mice administered with Fluc mRNA-loaded lipid nanoparticles containing CL4F12-e-4, blood was collected 24 hours after administration and tested for each component. As a control, a blood test was also performed in a similar manner on mice that received PBS instead of the Fluc mRNA-loaded lipid nanoparticles. The results are shown in Table 14 (n=3, unpaired t-test). In the table, TP stands for total protein, AST for aspartate transaminase, ALB for albumin, LDH for […], BUN for blood urea nitrogen, γ-GT for γ-glutamyl transpeptidase, CRE for creatinine, T-CHO for total cholesterol, IP for inorganic phosphate, TG for triglyceride, HDL-C for high-density lipoprotein cholesterol, T-BIL for total bilirubin, and GLU for glucose, respectively. Additionally, ** indicates P<0.01, and * indicates P<0.05.

The test system of data set [2] is TTR gene. Nature of the data set: Measurement of TTR-KO activity (serum TTR protein, ELISA). The format is in vivo, mouse. To be noted: FIG. 8; CL4H6 LNP, sgTTR-G211; 7 days after administration. As for the experimental part:
Lipid nanoparticles encapsulating Cas9/sgTTR-RNP (Cas9/sgTTR-RNP-loaded lipid nanoparticles) were intravenously injected to BALB/c mice (female, 4 weeks old) at the indicated doses. One week after intravenous injection, the mice were euthanized, blood was collected, and serum was isolated by centrifugation. The TTR protein concentration in the serum was determined using a commercially available ELISA kit (Prealbumin ELISA Kit (mouse), Aviva Systems Biology) according to the manufacturer's protocol. The serum TTR protein concentration of untreated mice was taken as 100%, and the relative value (%) of the serum TTR protein concentration of mice administered with each lipid nanoparticle was taken as the knockout activity (TTR-KO activity) of the lipid nanoparticle.

Data set [3] is described as follows: Encapsulation rate of lipid nanoparticles (Ribogreen). Particulars: TTR-RNP-ssODN-loaded LNP, sgTTR-G211, CL4H6/DSPC/cholesterol/PEG-DMG 50/10/40/3.5 mol%. The format is physicochemical. As for the experimental part: The encapsulation rate of the lipid nanoparticles was calculated by measuring the amount of encapsulated nucleic acid (the amount of ssODN in the case of RNP-ssODN) using an RNA intercalator Ribogreen (manufactured by Life Technologies).

Data set [4] can be described thus: Average particle diameter, PdI and zeta potential of lipid nanoparticles (dynamic light scattering). The data set is classed as physicochemical. Particulars: TTR-RNP-ssODN-loaded LNP, sgTTR-G211, CL4H6/DSPC/cholesterol/PEG-DMG 50/10/40/3.5 mol%. As for the experimental part:
The mean particle diameter (number average value), ζ-mean particle diameter, and polydispersity index (PdI) of the lipid nanoparticles in PBS(−) (pH 7.4), as well as the zeta potential in 10 mM HEPES buffer (pH 7.4), were measured using an analyzing device, Zetasizer Nano ZS ZEN3600 (Malvern), which utilizes dynamic light scattering.

A short description of data set [5]: Evaluation of biodistribution (fluorescently labeled RNP-ssODN). The data set is classed as in vivo, mouse. To be noted: mice iv 2 mg RNP/kg, 1 hour; labeled TTR-RNP-ssODN in CL4H6 LNP (ssODN(−): free RNP, no LNP). As for the experimental part:
For fluorescent labeling of lipid nanoparticles, the RNP-ssODN solution described above was mixed with a three-fold molar amount of a fluorescent molecule (DyLight 650 NHS ester) in DMSO and incubated for 30 min at ambient temperature in the dark. Unreacted fluorescent molecules were removed by ultrafiltration (Amicon Ultra-0.5, MWCO 3 kDa, Millipore).
Lipid nanoparticles encapsulating the obtained fluorescently labeled RNP-ssODN (fluorescently labeled RNP-ssODN-loaded lipid nanoparticles) were intravenously injected into BALB/c mice (female, 4 weeks old) at 2 mg RNP/kg body weight. One hour after intravenous injection, the mice were euthanized and various tissues, including blood, were collected. The collected blood was immediately diluted with 1% sodium dodecyl sulfate (SDS) solution. The collected tissues were immediately weighed and then homogenized in 1% sodium dodecyl sulfate (SDS) solution. The resulting homogenates were transferred to a black 96-well plate, and fluorescence was measured using a microplate reader (VarioskanLux, Thermo Fisher Scientific) at settings of λex=652 nm and λem=672 nm. Calibration curves were generated using fluorescently labeled RNP-ssODN-loaded lipid nanoparticles and blood or tissue homogenates similarly prepared from untreated mice. Biodistribution was expressed as the percentage of injected dose per tissue or blood (% injected dose).

Where [6] appears, read: blood 24 hours after Fluc mRNA-loaded LNP containing CL4F12-e-4, n=3.

With `CCCCCCC(CCCC)CCCCC(=O)OCCCCCCC(O)(CCCCCCOC(=O)CCCCC(CCCC)CCCCCC)CCCCN(CCC)CCC` (stereo not drawn) [CL4F12-e-4, 7-(4-(dipropylamino)butyl)-7-hydroxytridecane-1,13-diylbis(6-butyldodecanoate)], in data set [1] (24 hours after Fluc mRNA-loaded LNP), the “toxicity (blood test)” value was “no particular toxicity was observed”. For the same molecule, in data set [1] (setting [6]), the ALB came to 3.3 ± 0.1 g/dL, the ALT was found to be 39.3 ± 3.4 IU/L, the AMY is 1879.3 ± 136.2** IU/L and the AST was 95.3 ± 3.4** IU/L. In addition, in data set [1] (setting [6]), the BUN worked out at 25.3 ± 2.8 mg/dL, the CRE is 0.1 ± 0.01 mg/dL, the Ca was 11.9 ± 0.4** mg/dL and the Cl is listed as 98 ± 0 mEq/L. In data set [1] (setting [6]), the GLU was 214 ± 8.2 mg/dL, the HDL-C is recorded as 78.7 ± 4.7** mg/dL, the IP came out at 11.1 ± 0.5 mg/dL and the K worked out at 6.9 ± 0.2 mEq/L. In addition, in data set [1] (setting [6]), the LDH is recorded as 732 ± 39.6 IU/L, the Na came out at 150.7 ± 1.9 mEq/L, the T-BIL came out at 0.03 ± 0.01 mg/dL and the T-CHO was 154.7 ± 8.4** mg/dL. In data set [1] (setting [6]), the TG stood at 134 ± 52.8 mg/dL, the TP is 4.9 ± 0.1 g/dL and the γ-GT is 6> IU/L.

B1: ssODN-TTR_3-24° C.-5′: ssODN pairing with sgTTR-G211, mismatch on one side; SEQ ID NO 19 (nucleic acid)
DNA: AAAAAAAAAAAAAAAAAAAAAAAAAAAAAAAAAAAAAAAAAAAAAAAAAAAAAAAATGCTGTAGTAAAAAAAAATTAAAAAAAAAAAAAAAAAAAAAAAAAAAAAAAAAAAAAAAAAAAAAAAAAAAAAAAA
B1: in data set [2], the “serum TTR (5′ versus 3′ mismatch site)” value is reported as “about the same”. Besides, the Encapsulation rate in data set [3] (Table 13) was determined as 61.5%. Moreover, in data set [4] (Table 13), the Number-average particle diameter was found to be 76.7 nm, the PdI stood at 0.147, the ζ-average was determined as 123.5 nm and the ζ-potential came out at 2.71 mV.

B2: ssODN-TTR_3-50° C.-3′: ssODN pairing with sgTTR-G211, mismatch on one side; SEQ ID NO 20 (nucleic acid)
DNA: AAAAAAAAAAAAAAAAAAAAAAAAAAAAAAAAAAAAAAAAAAAAAAAAAAAAAAAATGCTGTAGACGTGGCTAATTAAAAAAAAAAAAAAAAAAAAAAAAAAAAAAAAAAAAAAAAAAAAAAAAAAAAAAAA
For B2, the “serum TTR (5′ versus 3′ mismatch site)” value in data set [2] is reported as “about the same”. Moreover, the Encapsulation rate in data set [3] (Table 13) worked out at 58.7%. In data set [4] (Table 13), this molecule came in with a Number-average particle diameter of 79.0 nm, a PdI of 0.166, a ζ-average of 139.9 nm and a ζ-potential of 4.02 mV.

B3: ssODN-TTR_3-24° C.-3′: ssODN pairing with sgTTR-G211, mismatch on one side; SEQ ID NO 18 (nucleic acid)
DNA: AAAAAAAAAAAAAAAAAAAAAAAAAAAAAAAAAAAAAAAAAAAAAAAAAAAAAAAAAAAAAATATAAAGGCTGTAAAAAAAAAAAAAAAAAAAAAAAAAAAAAAAAAAAAAAAAAAAAAAAAAAAAAAAAAA
B3: the “serum TTR (5′ versus 3′ mismatch site)” value in data set [2] is reported as “about the same”. This molecule also gave an Encapsulation rate in data set [3] (Table 13) of 65.6%. In data set [4] (Table 13), this molecule displayed a Number-average particle diameter of 73.1 nm, a PdI of 0.200, a ζ-average of 140.1 nm and a ζ-potential of 5.73 mV.

B4: ssODN-TTR_3-0%: ssODN, 0% matched with sgTTR-G211; SEQ ID NO 9 (nucleic acid)
DNA: AAAAAAAAAAAAAAAAAAAAAAAAAAAAAAAAAAAAAAAAAAAAAAAAAAAAAAAAAAAAAATATAAAAAAAAATTAAAAAAAAAAAAAAAAAAAAAAAAAAAAAAAAAAAAAAAAAAAAAAAAAAAAAAAA
Molecule B4 returned an Encapsulation rate in data set [3] (Table 11) of 89.4%. For the same molecule, in data set [5], the ID %/tissue blood was 8.48 ID %/tissue, the ID %/tissue kidney is 0.17 ID %/tissue, the ID %/tissue liver was determined as 31.62 ID %/tissue and the ID %/tissue lung turned out to be 0.18 ID %/tissue. Further, the ID %/tissue spleen in data set [5] is 4.18 ID %/tissue. In data set [4] (Table 11), this molecule registered a Number-average particle diameter of 67.2 nm, a PdI of 0.192, a ζ-average of 128.4 nm and a ζ-potential of 3.49 mV.

B5: ssODN-TTR_3-50° C.-5′: ssODN pairing with sgTTR-G211, mismatch on one side; SEQ ID NO 21 (nucleic acid)
DNA: AAAAAAAAAAAAAAAAAAAAAAAAAAAAAAAAAAAAAAAAAAAAAAAAAAAAAAAAAAATGTAGACGTGGCTGTAAAAAAAAAAAAAAAAAAAAAAAAAAAAAAAAAAAAAAAAAAAAAAAAAAAAAAAAAA
In the case of B5, in data set [2], the “serum TTR (5′ versus 3′ mismatch site)” value is recorded as “about the same”. The Encapsulation rate in data set [3] (Table 13) is 56.6%. Moreover, in data set [4] (Table 13), the Number-average particle diameter is recorded as 86.8 nm, the PdI came to 0.094, the ζ-average amounted to 124.9 nm and the ζ-potential stood at 3.46 mV.
